The subject of series [1] is immature embryos. Briefly: Second selection experiment, transformation frequency with 40 mg/L ammonium glufosinate or 5 mg/L bialaphos. It counts as cell-based, maize. The method, then:
10 mg/L to 40 mg/L of ammonium glufosinate all had survivor transgenic plant candidates for the binary vector comprising PAT variant type 3b. […] A second experiment was performed using 40 mg/L ammonium glufosinate, or using the GS inhibitor bialaphos at 5 mg/L. For this experiment, following transformation the immature embryos were selected, plants were regenerated and rooted, and transgenic plants were identified so that transformation frequency could be calculated.

Series [2] deals with immature embryos. The experiment in a line: Kill curve, ammonium glufosinate concentration for selection, survival percentage. It counts as cell-based, maize. Conditions: for % Survival: plants that rooted over immature embryos transformed. The method, then:
The expression cassette of PAT variant type 3b (SEQ ID NO: 13) was introduced into a binary vector, now referred to as 23419. Binary vector 18857 (described in Table 2), which expresses cPAT-09, was used as a control. […] For vector 23419, 75-86 immature embryos were transformed using Agrobacteria similar to the method described in Example 4. Selection was performed using 10-80 mg/L of ammonium glufosinate (Ignite®). Following selection, plantlets were regenerated and then transferred to rooting media. The survival percentage (%) is shown as the number of plants that rooted over the number of immature embryos initially transformed.

B1: cPAT-09: control PAT DNA sequence codon optimized to Arabidopsis thaliana (SEQ ID NO: 21); tested here in binary vector 18857 (nucleic acid)
DNA: ATGTCTCCGGAGAGGAGACCAGTTGAGATTAGGCCAGCTACAGCAGCTGATATGGCCGCGGTTTGTGATATCGTTAACCATTACATTGAGACGTCTACAGTGAACTTTAGGACAGAGCCACAAACACCACAAGAGTGGATTGATGATCTAGAGAGGTTGCAAGATAGATACCCTTGGTTGGTTGCTGAGGTTGAGGGTGTTGTGGCTGGTATTGCTTACGCTGGGCCCTGGAAGGCTAGGAACGCTTACGATTGGACAGTTGAGAGTACTGTTTACGTGTCACATAGGCATCAAAGGTTGGGCCTAGGCTCCACATTGTACACACATTTGCTTAAGTCTATGGAGGCGCAAGGTTTTAAGTCAGTGGTTGCTGTTATAGGCCTTCCAAACGATCCATCTGTTAGGTTGCATGAGGCTCTAGGATACACAGCGCGGGGTACACTGCGCGCAGCTGGATACAAGCATGGTGGATGGCATGATGTTGGTTTTTGGCAAAGGGATTTTGAGTTGCCAGCTCCTCCAAGGCCAGTGAGGCCAGTTACCCAGATCTGA
modifications: derived from Streptomyces viridochromogenes
In the case of B1, the “Total # Events” value in the series with immature embryos [1] (5 mg/L Bialaphos) stood at 7; in the series with immature embryos [1] (40 mg/L ammonium glufosinate) it was 5. For the same molecule, the “Transformation frequency % (TF)” value in the series on immature embryos [1] (5 mg/L Bialaphos) is reported as 0.875%; with immature embryos [1] (40 mg/L ammonium glufosinate), 0.625%. Further, the “% Survival” value in the series on immature embryos [2] (10 mg/L ammonium glufosinate) came out at 1.3%; in the series with immature embryos [2] (20 mg/L ammonium glufosinate), 1.3%; with immature embryos [2] (40 mg/L ammonium glufosinate) it was 0%; with immature embryos [2] (80 mg/L ammonium glufosinate) it was 0%. In addition, in the series with immature embryos [2] (40 mg/L ammonium glufosinate), the “survival of selection (in words)” value is reported as “did not survive selection”.

These data come from US11319552B2, “Methods for improving transformation frequency” (SYNGENTA PARTICIPATIONS AG, priority 2016, dated 2022).
